T1: bacterially expressed glutathione-S-transferase (GST)-RAR-γ fusion protein (human) (UniProt P13631)
T1 sequence (looked up): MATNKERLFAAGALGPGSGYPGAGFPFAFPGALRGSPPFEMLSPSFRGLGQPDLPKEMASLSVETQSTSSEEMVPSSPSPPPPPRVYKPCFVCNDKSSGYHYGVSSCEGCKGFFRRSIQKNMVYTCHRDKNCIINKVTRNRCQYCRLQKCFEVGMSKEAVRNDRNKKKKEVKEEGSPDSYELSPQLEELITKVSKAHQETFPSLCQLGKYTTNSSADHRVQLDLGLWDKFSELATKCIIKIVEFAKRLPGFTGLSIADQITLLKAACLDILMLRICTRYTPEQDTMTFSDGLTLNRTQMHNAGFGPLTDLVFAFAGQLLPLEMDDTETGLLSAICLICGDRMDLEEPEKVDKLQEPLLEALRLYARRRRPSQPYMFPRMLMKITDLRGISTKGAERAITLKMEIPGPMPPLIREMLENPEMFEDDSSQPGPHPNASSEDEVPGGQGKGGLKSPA

B1: [35S]-radiolabeled in vitro translated N-CoR-C' (C-terminus of N-CoR, amino acids 1629-2453) (protein, UniProt Q60974 1629-2453, looked up)
chain: MQVNLRPDVTRGLSPREQPLGLPYPATRGIIDLTNMPPTILVPHAGGTSTPPMDRITYIPGTQVTFPPRPYNAASLSPGHPTHLAAAASAEREREREREKERERERERERERERERIAAAPADLYLRPGSEQPGRPGSHGYVRSPSPSVRTQETILQQRPSVFQGTNGTSVITPLDPTAQLRIMPLPSGGPSISQGLPASRYNTAADALAALVDAAASAPQMDVSKTKESKHEAARLEENLRSRSAAVSEQQQLEQKNLEVEKRSVQCVCTSSALPSGKAQPHASVVYSEAGKDKGPPPKSRYEEELRTRGKTTITAANFIDVIITRQIASDKDARERGSQSSDSSSSLSSHRYETASDAIEVISPASSPAPPQEKPQAYQPDMVKANQAENESTRQYEGPLHHYRSQQESPSPQQQPPLPPSSQSEGMGQVPRTHRLITLADHICQIITQDFARNQVPSQASTSTFQTSPSALSSTPVRTKTSSRYSPESQSQTVLHPRPGPRVSPENLVDKSRGSRPGKSPERSHIPSEPYEPISPPQGPAVHEKQDSMLLLSQRGVDPAEQRSDSRSPGSISYLPSFFTKLESTSPMVKSKKQEIFRKLNSSGGGDSDMAAAQPGTEIFNLPAVTTSGAVSSRSHSFADPASNLGLEDIIRKALMGSFDDKVEDHGVVMSHPVGIMPGSASTSVVTSSEARRDEGEPSPHAGVCKPKLINKSNSRKSKSPIPGQSYLGTERPSSVSSVHSEGDYHRQTPGWAWEDRPSSTGSTQFPYNPLTIRMLSSTPPTQIACAPSAITQAAPHQQNRIWEREPAPLLSAQYETLSDSDD
modifications: 35S-methionine radiolabel

Experiments:
[1] = target: Gal-4 AD-RAR-γ fusion protein (Gal-4 activation domain joined to RAR-γ, from pACT-RAR-γ) (yeast; human) (UniProt P13631); test: cell-based or functional assay
[2] = target: T1, bacterially expressed glutathione-S-transferase (GST)-RAR-γ fusion protein (human); test: GST pull-down: 35S-labeled N-CoR-C' on GST-RAR-γ beads, incubation 20 minutes at 37° C.; phosphoimager quantitation
[3] = target: T1, bacterially expressed glutathione-S-transferase (GST)-RAR-γ fusion protein (human); test: GST pull-down: 35S-labeled N-CoR-C' on GST-RAR-γ beads, incubation 20 minutes at 30° C.; phosphoimager quantitation
[4] = target: T1, bacterially expressed glutathione-S-transferase (GST)-RAR-γ fusion protein (human); test: GST pull-down: 35S-labeled N-CoR-C' on GST-RAR-γ beads, incubation 20 minutes at 20° C.; phosphoimager quantitation

Row | Molecule | Units of β-galactosidase activity, yeast two-hybrid in Y190; 1 µM AGN 193109, Triplicate 1 [1] [units] | Units of β-galactosidase activity, yeast two-hybrid in Y190; 1 µM AGN 193109, Triplicate 2 [1] [units] | Units of β-galactosidase activity, yeast two-hybrid in Y190; 1 µM AGN 193109, Triplicate 3 [1] [units] | Units of β-galactosidase activity, yeast two-hybrid in Y190; 1 µM TTNPB, Triplicate 1 [1] [units] | Units of β-galactosidase activity, yeast two-hybrid in Y190; 1 µM TTNPB, Triplicate 2 [1] [units] | Units of β-galactosidase activity, yeast two-hybrid in Y190; 1 µM TTNPB, Triplicate 3 [1] [units] | Units of β-galactosidase activity, yeast two-hybrid in Y190; Control (DMSO), Triplicate 1 [1] [units] | Units of β-galactosidase activity, yeast two-hybrid in Y190; Control (DMSO), Triplicate 2 [1] [units] | Units of β-galactosidase activity, yeast two-hybrid in Y190; Control (DMSO), Triplicate 3 [1] [units] | β-Galactosidase Activity (units), yeast two-hybrid in Y190; 1 µM AGN 194310 [1] [units] | β-Galactosidase Activity (units), yeast two-hybrid in Y190; Control (DMSO) [1] [units] | fold increase in interaction between RAR and N-CoR (1 µM AGN 193109 against vehicle alone, 37° C.) [2] [fold] | fold decrease in N-CoR interaction with RAR (1 µM TTNPB against vehicle alone, 30° C.) [3] [fold] | fold increase in N-CoR interaction with RAR (1 µM AGN 193109 against vehicle alone, 30° C.) [3] [fold] | fold decrease in N-CoR binding (1 µM TTNPB against vehicle alone, 20° C.) [4] [fold] | fold increase in N-CoR binding (1 µM AGN 193109 against vehicle alone, 20° C.) [4] [fold]
1 | GAL-4 DBD-N-CoR fusion protein (GAL-4 DNA binding domain fused to the full length N-CoR polypeptide, from pAS-N-CoR) (from UniProt P04386 1-147; Q60974 1-2453) | 5.91 | 4.43 | 4.15 | 2.26 | 1.83 | 1.96 | 2.18 | 2.12 | 1.69 | 5.1 | 0.82 | – | – | – | – | –
2 | B1 | – | – | – | – | – | – | – | – | – | – | – | 20.5 | 4.5 | 2.2 | 2.6 | 1.6
